14 molecules from patent publication US20260069689A1 (Regeneron, published 2026) can be followed below.

For experiment [1], the target named is T1, SARS-CoV2 Spike ecto foldon Trimer expressed with a C-terminal myc-myc-hexahistidine (SARS-CoV-2, UniProt P0DTC2 14-1213).
T1 construct: extracellular domain
The experiment in a line: SPR Biacore, mAb captured by anti-hFc, 37C.

The target of experiment [2] is T1, SARS-CoV2 Spike ecto foldon Trimer …. The experiment can be described thus: SPR Biacore, mAb captured by anti-hFc, 25C.
Experiment [3] deals with T2, SARS-COV-2 RBD extracellular domain expressed with a C-terminal mouse IgG2a Fc (SARS-CoV-2). The experiment can be described thus: Biacore SPR, mAb captured on anti-hFc, 37 C. Background: In SPR one partner is held on a chip, and binding of the other changes the refractive index at the surface.
Experiment [4] deals with T2, SARS-COV-2 RBD extracellular domain …. The experiment can be described thus: Biacore SPR, mAb captured on anti-hFc, 25 C.

Residue numbers refer to the chain shown, from its start.

B1: mAb14284 (antibody, V domains shown)
VH: QITLKESGPTLVKPTQTLTLTCTFSGFSFSTSGVGVGWIRQPPGKTLEWLALIYWDDDKRYSPSLKSRLTITKDTSKNQVVLTMTNMDPVDTATYFCAHHGIPTIFGYWGQGALVTVSS
VL: QSALTQPASVSGSPGQSITISCTGTSSDLGVFNYVSWYQQHPGKAPKLMIYEVTNRPSGVSNRFSGSKSGNTASLTISGLQAEDEADYYCSSYTTSSTVFGGGTKLTVLG
By Kd is commonly meant the constant that tells how readily two partners part at equilibrium. A high value points to a looser complex. Broadly, the koff is the first-order rate constant of dissociation. The low end stands for a long-lived complex, the high end for a short-lived complex. Usually kon stands for a measure of how fast the partners come together. What is called t½ is how long it takes for the measured level to halve. Read a low t½ as fast loss. In the case of B1, in experiment [1], the Kd came to 0.0251 nM, the off-rate (koff) came out at 2.05e-05 s⁻¹, the on-rate constant (kon) stood at 814000 M⁻¹ s⁻¹ and the t½ amounted to 9.41 h. For the same molecule, in experiment [2], the affinity, expressed as Kd, was 0.0161 nM; the koff was found to be 1.31e-05 s⁻¹; the kon was determined as 812000 M⁻¹ s⁻¹; the t½ was determined as 14.7 h.

B2: mAb15163 (antibody, V domains shown)
VH: EVQLVETGGGLIQPGESLRLSCAASGFIVSTNYMNWVRQAPGKGLEWVSVIYRGGSTYYADSVKGRFTISRDNSKNTLFLQMNSLRAEDTAVYYCARGHEDFDYDTPASGAFDIWGQGTMVTVSS
VL: QSALTQPPSASGSPGQSVTISCTGTSSDVGGHNYVSWYQQHPGKAPKVMIYEVSKRPSGVPDRFSGSKSGNTASLTVSGLQAEDEADYYCSSYAGSNKFVFGTGTKVTVLG
Turning to B2, in experiment [1], the dissociation constant (Kd) was 0.0364 nM, the off-rate (koff) was 4.85e-05 s⁻¹, the association rate constant (kon) came to 1.35e+06 M⁻¹ s⁻¹ and the t½ is 3.97 h. For the same molecule, in experiment [2], binding was characterised by a dissociation constant (Kd) of 0.0562 nM, the koff came out at 1.15e-05 s⁻¹, the kon came out at 214000 M⁻¹ s⁻¹ and the t½ amounted to 16.7 h.

B3: mAb15164 (antibody, V domains shown)
VH: EVQLVESGGGLVQPGGSLRLSCAASGFAVSSNYMTWVRQAPGKGLEWVATIYSGDSTYYADSVKGRFTISRHNSKNTLSLQMNSLRADDTAIYYCARLSGVLSGTYNGAFDIWGQGTMVTVSS
VL: QSALTQPASVSGSPGQSITISCTGTSSDFGNYNIVSWYQQHPGQAPKVMIYEGNKRPSGVSNRFSGSKSGHTASLTISGLQAEDEADYYCSSYAGSSTWVFGGGTKLTVLG
In experiment [1], B3 gave a Kd of 0.0777 nM, a koff of 0.000138 s⁻¹, a kon of 1.78e+06 M⁻¹ s⁻¹ and a t½ of 1.4 h. In experiment [2], this molecule gave a Kd of 0.0865 nM, an off-rate constant (koff) of 2.58e-05 s⁻¹, a kon of 298000 M⁻¹ s⁻¹ and a t½ of 7.47 h.

B4: mAb15166 (antibody, V domains shown)
VH: EVQLVESGGGLVQPGGSLRLSCAASGFTVTSNYMSWVRQAPGKGLEWVSAIYSGESTYYADSVKGRFTISRDSSKNTLYLQMNSLRVEDTAVYYCASIHDYSNYVGGFDPWGQGTLVTVSS
VL: B3 VL with T25P, N31S, I34L, Q44K, V48L, N54T, H71N
As to B4, in experiment [1], the dissociation constant Kd was 0.054 nM, the koff was determined as 8.32e-05 s⁻¹, the kon is 1.54e+06 M⁻¹ s⁻¹ and the t½ is 2.31 h. In experiment [2], this molecule displayed a Kd of 0.63 nM, a koff of 0.000174 s⁻¹, an on-rate (kon) of 276000 M⁻¹ s⁻¹ and a t½ of 1.1 h.

B5: mAb15165 (antibody, V domains shown)
VH: EVQLVESGGGLVQPGGSLRLSCAASGFTVSSNYMSWVRQAPGKGLEWVSAIYSGDSTYYADSVKGRFTISKDNSKNTLYLQMNSLRGEDTAVYYCARLGGALQAYDGAFDYWGQGTLATVSS
VL: B3 VL with N31S, I34L, Q44K, V48L, N62I, H71N
In experiment [1], B5 yielded an equilibrium dissociation constant (Kd) of 0.0542 nM, an off-rate constant (koff) of 0.000115 s⁻¹, a kon of 2.12e+06 M⁻¹ s⁻¹ and a t½ of 1.67 h. In experiment [2], the dissociation constant Kd was 0.0279 nM, the koff came out at 1.09e-05 s⁻¹, the kon is 391000 M⁻¹ s⁻¹ and the t½ was 17.6 h.

B6: mAb15150 (antibody, V domains shown)
VH: EVQLVETGGGLIQPGGSLRLSCAAPGFIVSSNYMSWVRQAPGKGLEWVSLLYPGGSTYYADSVKGRFTISRDNSKNTLYLQMNSLRADDTAVYYCARVLPIVEDHFDYWGQGTLVTVSS
VL: DIQLTQSPSFLSASVGDRVTITCRASQGMSSYLAWYQKKPGKAPKLLIYGATILQSGVPSRFSGSGSGTEFTLTISSLQPEDFATYYCQQLNSDPLYMYTFGQGTKLEIKR
In the case of B6, in experiment [1], the Kd was determined as 0.0202 nM, the koff amounted to 3.42e-05 s⁻¹, the kon worked out at 1.68e+06 M⁻¹ s⁻¹ and the t½ stood at 5.63 h. In experiment [2], the Kd was ≤ 0.0315 nM, the koff was ≤ 1e-05 s⁻¹, the association rate constant (kon) is 317000 M⁻¹ s⁻¹ and the t½ was 19.2 h.

B7: mAb15150 (antibody, V domains shown)
VH: B6 VH
VL: B6 VL
Regarding B7, in experiment [3], the Kd was found to be 0.0296 nM, the off-rate (koff) was found to be 2.8e-05 s⁻¹, the on-rate (kon) turned out to be 946000 M⁻¹ s⁻¹ and the t½ was determined as 6.88 h.

B8: mAb15170 (antibody, V domains shown)
VH: EVQLVESGGGLVQPGGSLRLSCAATGITVSSNYMSWVRQAPGKGLEWVSLIYSGGSTFYADSVKGRFTISRHNSKNTLYLQMSSLRAEDTAVYYCARDLVDFGMDVWGQGTTVTVSS
VL: DIQLTQSPSSLSASVGDRVTITCRASQGISNYLAWYQQKPGKAPKLLIYAASTLQSGVPSRFSGSGSGTDFTLTISSLQPEDFGTYYCQQLNSDSPTFGQGTKVEIKR
Turning to B8, in experiment [1], binding was characterised by a dissociation constant (Kd) of 0.0118 nM, the koff amounted to 1e-05 s⁻¹, the association rate constant (kon) was 846000 M⁻¹ s⁻¹ and the t½ is 19.2 h. Moreover, in experiment [2], binding was put at a Kd of 0.11 nM, the koff was 1.29e-05 s⁻¹, the association rate constant (kon) stood at 120000 M⁻¹ s⁻¹ and the t½ was 14.9 h.

B9: mAb14312 (antibody, V domains shown)
VH: EVQLVESGGGLVQPGGSLRLSCAASGFTVSRSYMTWVRQAPGKGLEWVSVIFTGGRTDHADSVKGRFTISRHNSKNTLYLQMNSLRTEDTAVYYCARVAIVGATGAFDIWGQGTMVTVSS
VL: QSVLTQPPSVSGAPGQRVTISCTGSSSNIGAGDDVHWYQQLPGTAPKLLIYGNSNRPSGVPDRFSGSKSGTSASLAITGLQAEDEADYYCQSYDSSLSGSVVFGGGTKLTVLG
Regarding B9, in experiment [1], binding was characterised by a dissociation constant (Kd) of 0.0563 nM, the off-rate constant (koff) turned out to be 5.44e-05 s⁻¹, the kon is 966000 M⁻¹ s⁻¹ and the t½ was 3.54 h. For the same molecule, in experiment [2], binding was put at a Kd of 0.0272 nM, the koff was 5.24e-05 s⁻¹, the on-rate constant (kon) stood at 1.93e+06 M⁻¹ s⁻¹ and the t½ was found to be 3.67 h.

B10: mAb15162 (antibody, V domains shown)
VH: EVQLVETGGGLIQPGGSLRLSCAASEFIVSRNYMSWVRQAPGKGLEWVSLIYSGGSTYYADSVKGRFTISRDNSKNILYLQMNSLRAEDTAVYYCARDRGGISDYWGQGTLVTVSS
VL: DIQMTQSPSSLSASVGDRVTITCQASQDINKYLNWFQQKPGKAPKLLIYDASNLETGVPSRFSGSGSGTDFTFTISSLQPEDIATYYCQQYDNLPRTFGQGTKLEIKR
In experiment [1], B10 registered an equilibrium dissociation constant (Kd) of 0.425 nM, a dissociation rate constant (koff) of 0.000187 s⁻¹, an on-rate constant (kon) of 440000 M⁻¹ s⁻¹ and a t½ of 1.03 h. In experiment [2], this molecule showed a Kd of 0.648 nM, a koff of 6.79e-05 s⁻¹, a kon of 105000 M⁻¹ s⁻¹ and a t½ of 2.83 h.

B11: mAb13459 (antibody, V domains shown)
VH: EVQLVESGGGLVQPGRSLRLSCAASGFTFDDYAMHWVRQAPGKGLEWVSGISWNSGSIGYADSVKGRFTISRDNAKNSLYLQMNSLRAEDTALYYCAKDIGITTPYWGQGTLVTVSS
VL: AIQMTQSPSSLSASVGDRVTITCRASQDIRNDLGWYQQKPGKAPKLLIYSASSLQTGVPSRFSGSGSGTDFTLTISSLHPEDFATYYCLQDYNYVWTFGQGTKVEIKR
In experiment [3], B11 showed a Kd of 0.0939 nM, a koff of 9.24e-05 s⁻¹, a kon of 985000 M⁻¹ s⁻¹ and a t½ of 2.08 h.

B12: mAb15151 (antibody, V domains shown)
VH: QVQLVESGGGVVQPGRSLRLSCAASGFVFNSYGMHWVRQAPGKGLEWVAVLWYEGSKNYYADSVKGRFTISRDNSKNTLYLQMNSLRAEDTAVYYCARHGSGSFFGYYLDYWGQGTLVTVSS
VL: DIQMTQSPSSLSASVGDRVTITCRASHNINDFLNWYQQKPGKAPRLLIYAASSLQSGVPSRFSGSGSGTDFTLTISSLQPEDFATYYCQESYTTPPTFGQGTKLEIKR
In experiment [1], B12 came in with a Kd of 0.129 nM, a koff of 0.000248 s⁻¹, a kon of 1.92e+06 M⁻¹ s⁻¹ and a t½ of 0.777 h. In experiment [2], this molecule had a Kd of 0.187 nM, a koff of 6.26e-05 s⁻¹, a kon of 335000 M⁻¹ s⁻¹ and a t½ of 3.08 h.

B13: mAb14258 (antibody, V domains shown)
VH: QLQLQESGPGLVKPSETLSLICTGSGDSISSSHYYWGWIRQPPGKGLEWIGSTYFSGSTYYNPSLKSRVSISVDTSKNQVSLKLISVTAADTAVYYCAREMGATLGDYWGPGTLVTVSS
VL: QSVLTQPPSASGTPGQRVTISCSGSSSNIGNNYVYWYQQFPGTTPRLLIYRNNERPSGVPDRFSGSKSGTSASLVISGLRSEDEADYYCAAWDDSLSAHYVFGTGTKVTVLG
In experiment [4], B13 showed a Kd of 3.04 nM, a koff of 0.000109 s⁻¹, a kon of 35600 M⁻¹ s⁻¹ and a t½ of 1.77 h.

B14: mAb15161 (antibody, V domains shown)
VH: EVQLVESGGGLVQPGGSLRLSCAASGFTFSSYEMNWVRQAPGKGLEWVSYISSSGSILYYADSVKGRFTASRDNAKNSLYLQMNSLRAEDTGVYYCARREYQLLRPFEFWGQGTLVTVSS
VL: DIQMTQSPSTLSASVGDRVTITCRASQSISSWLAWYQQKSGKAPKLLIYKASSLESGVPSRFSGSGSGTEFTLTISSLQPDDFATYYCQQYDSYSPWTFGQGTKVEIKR
In experiment [1], B14 showed an equilibrium dissociation constant (Kd) of 0.0616 nM, a koff of 9.14e-05 s⁻¹, an association rate constant (kon) of 1.48e+06 M⁻¹ s⁻¹ and a t½ of 2.11 h. Further, in experiment [2], binding was characterised by a dissociation constant (Kd) of 0.049 nM, the dissociation rate constant (koff) was 1.38e-05 s⁻¹, the kon worked out at 280000 M⁻¹ s⁻¹ and the t½ came to 14 h.
